From publication doi:10.1101/2022.08.03.502629

Biological target: antithrombin (UniProt P01008)
Assay: SPR

Chain of UniProt P01008 (P01008 33-464): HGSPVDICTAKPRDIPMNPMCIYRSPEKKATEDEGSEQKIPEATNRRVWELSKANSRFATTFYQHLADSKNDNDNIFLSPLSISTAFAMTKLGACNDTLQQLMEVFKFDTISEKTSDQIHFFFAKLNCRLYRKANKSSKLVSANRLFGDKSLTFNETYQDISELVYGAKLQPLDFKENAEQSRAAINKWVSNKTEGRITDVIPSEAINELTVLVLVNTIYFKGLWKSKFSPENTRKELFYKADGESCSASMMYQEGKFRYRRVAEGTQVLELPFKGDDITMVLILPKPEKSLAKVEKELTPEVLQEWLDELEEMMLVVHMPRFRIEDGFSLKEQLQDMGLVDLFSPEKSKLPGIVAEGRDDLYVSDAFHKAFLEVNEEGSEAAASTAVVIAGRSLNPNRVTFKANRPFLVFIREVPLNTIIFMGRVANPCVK

Substance	Kd [nM]
S195A Gla-domainless factor Xa (domain or fragment)	416
K96Y S195A Gla-domainless factor Xa (domain or fragment)	460
